The target in the assay is Cynomolgus monkey B7H6 protein overexpressed in CHO-K1 cells (Cynomolgus monkey). Put plainly: flow cytometry on CHO-K1-cyno B7H6 cells, Alexa-647 mouse anti-human IgG-Fc secondary antibody, binding ratio (%). Background: A flow cytometer gives signals particle by particle.

Experimental findings from patent US20240190968A1 are described below.

Sequence of Cynomolgus monkey B7H6 protein overexpressed in CHO-K1 cells (Cynomolgus monkey) (chain, as listed by the source limits assumed, form in doubt): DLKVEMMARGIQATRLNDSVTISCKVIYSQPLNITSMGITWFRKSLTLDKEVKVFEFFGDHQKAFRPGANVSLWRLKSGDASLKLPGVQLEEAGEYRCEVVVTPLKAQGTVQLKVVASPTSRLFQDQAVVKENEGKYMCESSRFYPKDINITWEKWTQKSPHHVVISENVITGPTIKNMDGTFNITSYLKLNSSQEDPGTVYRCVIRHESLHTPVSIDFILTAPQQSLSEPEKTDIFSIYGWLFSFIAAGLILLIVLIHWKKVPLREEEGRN

B1: humanized antibody h12G4 (antibody, human IgG1, kappa, V domains shown)
VH: EVQLVQSGAEVKKPGASVKVSCKASGYTFTDYNMDWVRQAPGKGLEWIGDINPNNGGTLYNQKFRGRVTLTVDKSISTAYMELSRLRSDDTAVYYCARSEVFYGNYADYWGQGTTVTVSS
VL: DIVLTQTPLSLSVTPGQPASISCKASQSVDYDGDSYMNWYLQKPGQPPQLLIYAASTLHSGVPDRFSGSGSGTDFTLKISRVEAEDVGVYYCQQSKEDPRTFGQGTKLEIKR
With B1, the half-maximal effective concentration (EC50 (read off the curve)) (commonly the concentration needed to bring the measured effect to its halfway point) is 0.7 µg/mL.

B2: humanized antibody h12F5 (antibody, human IgG1, kappa, V domains shown)
VH: EVQLVQSGAEVKKPGASVKVSCKASGYTFTSYYMYWVRQAPGQGLEWIGEINPSNGGTNFNEKFKSRVTLTVDKSISTAYMELSRLRSDDTAVYYCTRTLYYGNDWYFDVWGQGTTVTVSS
VL: EIVLTQSPDFQSVTPKEKVTITCSASSSVNYMHWYQQKPDQSPKRLIYDTSKLASGVPSRFSGSGSGTDYTLTINSLEAEDAATYYCQQWSSNPVTFGQGTKLEIKR
As to B2, the half-maximal effective concentration (EC50 (read off the curve)) was 0.2 µg/mL.
